Measurements: paper PMC8466238, “Development of High Affinity Calcitonin Analog Fragments Targeting Extracellular Domains of Calcitonin Family Receptors” (Biomolecules, 2021)
Each block holds one molecule with its values, some of them ahead of it. The star is where a group is joined. FITC = O=C1OC2(c3ccc(O)cc3Oc3cc(O)ccc32)c2ccc(NC(=S)*)cc21; Ahx = NCCCCCC(=O)O

Columns and labels:
CGRP receptor = conditions: versus CGRP(27–37); cited from earlier work
From the text: The mutational strategies for developing high-affinity sCT peptide fragments came from the systemic report on CGRP and its high-affinity analogs. […] This supports the idea that applying affinity-enhancing mutations to the cor ...

FITC-labeled sCT(22–32) = molecular target: T1, FITC-labeled sCT(22–32) (salmon, SMILES …); experiment: fluorescence polarisation; saturation binding: FITC-labeled peptide probe (10 nM) with rising receptor ECD concentrations; receptor ECD concentration at half of the maximal anisotropy; conditions: both partners purified
T1 construct: salmon calcitonin (sCT), residues 22-32; numbers count on: the mature 32-residue hormone; peptide probe of the FP assay with the CTR ECD; also called FITC-sCT(22–32); source: synthetic peptide (Genscript, HPLC-purified)
T1 peptide: {FITC-Ahx}-YPRTNTGSGTP-NH2

[1] = molecular target: T2, RAMP2-CTR ECD fusion protein (hRAMP2.55–140-(GSA)3-hCTR.34–141-H6) (human, UniProt O60895 55-140; P30988 34-141); experiment: fluorescence polarisation; competition binding, full curves: FITC-AC413(6–25) Y25P probe 10 nM, RAMP1-CTR ECD 77 nM, RAMP2-CTR ECD 67 nM or RAMP3-CTR ECD 252 nM, competitive peptide at multiple concentrations, all in solution; KI from non-linear regression of anisotropy; conditions: both partners purified
T2 construct: human receptor activity-modifying protein 2 (RAMP2), extracellular domain, residues 55-140; linker, printed as (GSA)3; human calcitonin receptor (CTR), extracellular domain, residues 34-141; Secreted from a pHLsec-based vector; also called AMY receptor 2 ECD; RAMP2 ECD-CTR ECD fusion; source: HEK293T, transiently transfected, secreted to cell culture media, purified (IMAC, SEC)
T2 chain: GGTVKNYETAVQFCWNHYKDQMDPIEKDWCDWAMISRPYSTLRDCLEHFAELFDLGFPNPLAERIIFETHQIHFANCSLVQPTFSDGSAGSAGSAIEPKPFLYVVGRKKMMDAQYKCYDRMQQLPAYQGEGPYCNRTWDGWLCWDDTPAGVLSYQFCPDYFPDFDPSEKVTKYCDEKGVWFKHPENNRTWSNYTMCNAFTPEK

[2] = molecular target: T3, RAMP3-CTR ECD fusion protein (hRAMP3.25–112-(GSA)3-hCTR.34–141-H6) (human, UniProt O60896 25-112; P30988 34-141); experiment: as above; conditions: both partners purified
T3 construct: human receptor activity-modifying protein 3 (RAMP3), extracellular domain, residues 25-112; linker, printed as (GSA)3; human calcitonin receptor (CTR), extracellular domain, residues 34-141; Secreted from a pHLsec-based vector; also called AMY receptor 3 ECD; RAMP3 ECD-CTR ECD fusion protein; source: HEK293S GnTI-, transiently transfected (PEI), secreted to cell culture media, purified (IMAC, SEC)
T3 chain: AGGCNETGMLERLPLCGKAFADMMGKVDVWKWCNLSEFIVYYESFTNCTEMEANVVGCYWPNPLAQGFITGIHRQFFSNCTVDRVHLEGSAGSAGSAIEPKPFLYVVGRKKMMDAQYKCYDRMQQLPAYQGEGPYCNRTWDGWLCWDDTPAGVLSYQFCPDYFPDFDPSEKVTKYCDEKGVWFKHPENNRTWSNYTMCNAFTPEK

[3] = molecular target: T4, RAMP1-CTR ECD fusion protein (hRAMP1.24–111-(GSA)3-hCTR.34–141-H6) (human, UniProt O60894 24-111; P30988 34-141); experiment: as above; conditions: both partners purified
T4 construct: human receptor activity-modifying protein 1 (RAMP1), extracellular domain, residues 24-111; linker, printed as (GSA)3; human calcitonin receptor (CTR), extracellular domain, residues 34-141; Secreted from a pHLsec-based vector; also called AMY receptor 1 ECD; RAMP1 ECD-CTR ECD fusion; source: HEK293T, transiently transfected, secreted to cell culture media, purified (IMAC, SEC)
T4 chain: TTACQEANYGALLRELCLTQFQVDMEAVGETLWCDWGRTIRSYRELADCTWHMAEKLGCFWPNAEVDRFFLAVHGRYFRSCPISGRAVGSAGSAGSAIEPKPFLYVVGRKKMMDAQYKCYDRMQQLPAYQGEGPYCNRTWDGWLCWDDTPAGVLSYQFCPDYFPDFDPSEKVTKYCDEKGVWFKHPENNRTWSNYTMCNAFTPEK

Molecule: CGRPmut: human alpha CGRP(27–37) with N31D, S34P, and K35F mutations
increase in CGRP affinity for its receptor (CGRP receptor): 100 fold

receptor ECD concentration that produced a half of the maximal anisotropy with the peptide probe (FITC-labeled sCT(22–32)): 500 nM
B1: calcitonin receptor extracellular domain (hCTR.34–141-H6) (receptor, human, UniProt P30988 34-141, looked up)
chain: IEPKPFLYVVGRKKMMDAQYKCYDRMQQLPAYQGEGPYCNRTWDGWLCWDDTPAGVLSYQFCPDYFPDFDPSEKVTKYCDEKGVWFKHPENNRTWSNYTMCNAFTPEK
notes: human calcitonin receptor (CTR), extracellular domain, residues 34-141; Secreted from a pHLsec-based vector; also called CTR ECD; purified CTR ECD; source: HEK293T, transiently transfected, secreted to cell culture media, purified (IMAC, SEC)

binding result [1]: binds | binding result [2]: binds | binding result [3]: binds
B2: FITC-labeled AC413(6–25) with Y25P mutation (peptide)
peptide: {FITC-Ahx}-ANFLVRLQTYPRTNVGANTP-NH2
SMILES: CC(C)C[C@H](NC(=O)[C@H](CCCNC(=N)N)NC(=O)[C@@H](NC(=O)[C@H](CC(C)C)NC(=O)[C@H](Cc1ccccc1)NC(=O)[C@H](CC(N)=O)NC(=O)[C@H](C)NC(=O)CCCCCNC(=S)Nc1ccc2c(c1)C(=O)OC21c2ccc(O)cc2Oc2cc(O)ccc21)C(C)C)C(=O)N[C@@H](CCC(N)=O)C(=O)N[C@H](C(=O)N[C@@H](Cc1ccc(O)cc1)C(=O)N1CCC[C@H]1C(=O)N[C@@H](CCCNC(=N)N)C(=O)N[C@H](C(=O)N[C@@H](CC(N)=O)C(=O)N[C@H](C(=O)NCC(=O)N[C@@H](C)C(=O)N[C@@H](CC(N)=O)C(=O)N[C@H](C(=O)N1CCC[C@H]1C(N)=O)[C@@H](C)O)C(C)C)[C@@H](C)O)[C@@H](C)O
notes: residues 6-25 of AC413, an antagonistic amylin peptide analog, with Y25P; peptide probe of the FP assay with the AMY receptor ECDs; also called FITC-AC413(6–25) Y25P; source: synthetic peptide (Genscript, HPLC-purified)
